Columns and labels:
[1] = target: T1, His-AosR (Mycobacterium tuberculosis H37Rv, UniProt P9WM25 1-218); test: EMSA
T1 sequence: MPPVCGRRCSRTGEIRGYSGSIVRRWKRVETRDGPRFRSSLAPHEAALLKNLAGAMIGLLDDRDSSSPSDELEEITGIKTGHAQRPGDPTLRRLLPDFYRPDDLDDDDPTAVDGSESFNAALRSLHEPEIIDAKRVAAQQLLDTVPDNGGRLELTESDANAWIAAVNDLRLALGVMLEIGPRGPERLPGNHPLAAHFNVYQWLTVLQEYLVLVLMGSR

[2] = target: His-SigH (Mycobacterium tuberculosis H37Rv, UniProt P9WGH9 1-216); test: EMSA
His-SigH, sequence (P9WGH9 whole entry): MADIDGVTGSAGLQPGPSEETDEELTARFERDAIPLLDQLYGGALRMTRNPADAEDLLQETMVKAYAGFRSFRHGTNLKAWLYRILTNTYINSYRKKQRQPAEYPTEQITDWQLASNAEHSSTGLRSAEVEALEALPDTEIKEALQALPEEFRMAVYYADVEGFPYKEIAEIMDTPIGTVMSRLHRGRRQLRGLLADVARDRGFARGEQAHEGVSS

B1: 100 bp upstream of mec (intragenic auxiliary promoter) (dsDNA)
DNA 1: AGTCGTGCGGTGCTGGCCGGCGTGCTCAATGCTCAGCCGGTAGCCGGAATACCGACCTACCGTGACATGTTTTCCCGGAGCATTCGGGTCTTGAAACTCA
DNA 2: TATGAGTTTCAGGACCCGAATGCTCCCCGGGAAACATGTCACGGTAGGTCGGTATTCCGGCTACCGGCTGAGCATTGAGCACGCCGGCCAGCCACCGCACGACT
binding result [1]: binds | binding result [2]: binds
